In paper PMC9758056 one finds reduction of pelleting with microtubules against WT LRRK2^RCKW and decrease of microtubule binding against untreated microtubules data, which are given here for two substances.

Test [1] deals with Taxol-stabilized microtubules from porcine brain tubulin (porcine) (UniProt P02550). As to the kind of experiment: co-sedimentation; 200 nM LRRK^RCKW with various concentrations of taxol-stabilized microtubules, 10 minutes at room temperature, 20 mM Hepes pH 7.4, 110 mM NaCl (also 100 and 150 mM NaCl), 0.5 mM MgCl2, 0.5 mM TCEP, 5% glycerol, 20 μM GDP, 20 μM taxol; pelleted at 108,628 g; depletion from the supernatant on SYPRO-Red gels.

For test [2], the target named is Subtilisin-treated taxol-stabilized microtubules (C-terminal tubulin tails cleaved), labeled with Alexa Fluor 488 and biotin (bovine) (UniProt Q6B856). As to the kind of experiment: widefield fluorescence microscopy of labeled protein on tethered microtubules; Alexa Fluor 488-labeled microtubules tethered to a coverslip by biotin-streptavidin; TMR-labeled LRRK^RCKW (6.25 nM–50 nM; 100 nM for the NaCl series) incubated 5 minutes in 20 mM Hepes pH 7.4, 80 mM NaCl, 0.5 mM MgCl2, 0.5 mM TCEP, 5% glycerol, 20 μM GDP; also increasing sodium chloride.
Chain of Subtilisin-treated taxol-stabilized microtubules (C-terminal tubulin tails cleaved), labeled with Alexa Fluor 488 and biotin (bovine) (Q6B856 whole entry, looked up): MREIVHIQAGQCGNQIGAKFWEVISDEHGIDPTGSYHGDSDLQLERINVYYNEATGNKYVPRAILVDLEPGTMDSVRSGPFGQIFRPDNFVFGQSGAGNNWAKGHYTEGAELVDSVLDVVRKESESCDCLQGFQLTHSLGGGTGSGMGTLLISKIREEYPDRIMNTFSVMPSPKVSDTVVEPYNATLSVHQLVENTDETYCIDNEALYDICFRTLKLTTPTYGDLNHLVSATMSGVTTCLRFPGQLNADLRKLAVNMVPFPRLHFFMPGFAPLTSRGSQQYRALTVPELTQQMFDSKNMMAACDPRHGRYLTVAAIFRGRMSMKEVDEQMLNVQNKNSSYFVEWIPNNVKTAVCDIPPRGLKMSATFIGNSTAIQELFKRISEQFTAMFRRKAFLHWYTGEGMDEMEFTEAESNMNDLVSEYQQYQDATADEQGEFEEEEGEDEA

Chain of TMR-LRRK2^RCKW (LRRK2^RCKW randomly labeled with BODIPY TMR-X) (Q5S007 1327-2527): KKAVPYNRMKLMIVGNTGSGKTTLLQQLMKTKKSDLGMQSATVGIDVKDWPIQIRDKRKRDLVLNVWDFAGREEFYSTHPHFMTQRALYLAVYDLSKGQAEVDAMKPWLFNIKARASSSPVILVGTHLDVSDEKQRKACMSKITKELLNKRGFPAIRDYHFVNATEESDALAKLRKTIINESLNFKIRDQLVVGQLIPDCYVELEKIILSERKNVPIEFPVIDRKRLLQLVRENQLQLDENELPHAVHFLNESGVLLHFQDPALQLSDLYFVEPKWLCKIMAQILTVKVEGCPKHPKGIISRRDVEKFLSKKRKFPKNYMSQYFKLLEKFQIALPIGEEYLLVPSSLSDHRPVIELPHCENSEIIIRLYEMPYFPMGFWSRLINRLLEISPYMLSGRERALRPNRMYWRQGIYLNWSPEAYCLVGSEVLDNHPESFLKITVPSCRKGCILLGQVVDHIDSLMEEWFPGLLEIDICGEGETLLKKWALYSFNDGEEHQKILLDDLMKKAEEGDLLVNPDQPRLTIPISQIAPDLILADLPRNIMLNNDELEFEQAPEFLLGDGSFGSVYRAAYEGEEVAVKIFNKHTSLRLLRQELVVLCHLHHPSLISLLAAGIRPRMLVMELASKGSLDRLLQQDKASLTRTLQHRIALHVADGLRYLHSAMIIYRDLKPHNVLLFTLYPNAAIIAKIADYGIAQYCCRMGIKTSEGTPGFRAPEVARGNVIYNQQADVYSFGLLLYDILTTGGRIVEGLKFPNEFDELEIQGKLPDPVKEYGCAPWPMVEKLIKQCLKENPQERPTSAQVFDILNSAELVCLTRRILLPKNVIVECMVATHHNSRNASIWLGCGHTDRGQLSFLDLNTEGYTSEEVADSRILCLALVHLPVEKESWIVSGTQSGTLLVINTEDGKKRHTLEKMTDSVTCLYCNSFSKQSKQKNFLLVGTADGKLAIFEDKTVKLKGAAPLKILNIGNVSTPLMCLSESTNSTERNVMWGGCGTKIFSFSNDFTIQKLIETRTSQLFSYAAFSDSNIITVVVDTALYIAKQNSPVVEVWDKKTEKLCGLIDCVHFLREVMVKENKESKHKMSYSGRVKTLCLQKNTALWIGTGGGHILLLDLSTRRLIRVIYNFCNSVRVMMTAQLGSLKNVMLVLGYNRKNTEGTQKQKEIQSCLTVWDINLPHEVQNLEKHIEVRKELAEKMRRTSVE

“LRRK2^RCKW-R1731D (from UniProt Q5S007 1327-2527) (domain or fragment)” yielded a reduction of pelleting with microtubules against WT LRRK2^RCKW in test [1] of 50%.

For “TMR-LRRK2^RCKW (LRRK2^RCKW randomly labeled with BODIPY TMR-X) (from UniProt Q5S007 1327-2527) (domain or fragment)”, the decrease of microtubule binding against untreated microtubules in test [2] came to 50%.
